Tested on: Escherichia coli TOP10
Experiment: shrunken log2 fold change of peptide-encoding DNA abundance (4.5 h post-induction vs induction); higher = less antimicrobial activity (less host growth inhibition)
Details: time post-induction: 4.5 h; library: site-saturation at positions 5, 18, 19, 20
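Note: peptides expressed intracellularly from a pBAD plasmid library in pooled LB shake-flask culture, induced with 0.3% L-arabinose, DNA abundance read by NGS, three biological replicates, DESeq2 with apeglm shrinkage.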

Row | Sequence | shrunken log2 fold change
1 | RRIRIRPPRLPRPRPRPRHGPRP | -0.136
2 | RRIRIRPPRLPRPRPRPRISPRP | -0.127
3 | RRIRIRPPRLPRPRPRPRKVPRP | -0.0904
4 | RRIRIRPPRLPRPRPRPRMRPRP | 0.791
5 | RRIRIRPPRLPRPRPRPRNGPRP | 0.103
6 | RRIRIRPPRLPRPRPRPRNHPRP | -0.354
7 | RRIRIRPPRLPRPRPRPRPIPRP | 0.0745
8 | RRIRIRPPRLPRPRPRPRPNPRP | 0.091
9 | RRIRIRPPRLPRPRPRPRPQPRP | 0.321
10 | RRIRIRPPRLPRPRPRPRPRPRP | 0.472
11 | RRIRIRPPRLPRPRPRPRQAPRP | 0.0194
12 | RRIRIRPPRLPRPRPRPRQRPRP | 0.211
13 | RRIRIRPPRLPRPRPRPRRDPRP | -0.108
14 | RRIRIRPPRLPRPRPRPRRGPRP | 0.184
15 | RRIRIRPPRLPRPRPRPRSTPRP | -0.391
16 | RRIRIRPPRLPRPRPRPRWDPRP | -0.12
17 | RRIRIRPPRLPRPRPRPRWVPRP | 0.171
18 | RRIRIRPPRLPRPRPRPRYHPRP | -1.12
19 | RRIRIRPPRLPRPRPRPRYNPRP | -0.588
20 | RRIRIRPPRLPRPRPRPRYWPRP | 0.0433
21 | RRIRIRPPRLPRPRPRPSAAPRP | 0.0317
22 | RRIRIRPPRLPRPRPRPSCDPRP | 0.346
23 | RRIRIRPPRLPRPRPRPSCIPRP | -0.0523
24 | RRIRIRPPRLPRPRPRPSDMPRP | -0.309
25 | RRIRIRPPRLPRPRPRPSDWPRP | -0.0413

Row | Sequence | shrunken log2 fold change
26 | RRIRIRPPRLPRPRPRPSEEPRP | -0.188
27 | RRIRIRPPRLPRPRPRPSFAPRP | -0.24
28 | RRIRIRPPRLPRPRPRPSFCPRP | -0.656
29 | RRIRIRPPRLPRPRPRPSFDPRP | -0.442
30 | RRIRIRPPRLPRPRPRPSFMPRP | -0.871
31 | RRIRIRPPRLPRPRPRPSFNPRP | -0.838
32 | RRIRIRPPRLPRPRPRPSFQPRP | -0.329
33 | RRIRIRPPRLPRPRPRPSFSPRP | -0.357
34 | RRIRIRPPRLPRPRPRPSFTPRP | -0.573
35 | RRIRIRPPRLPRPRPRPSHNPRP | -1.06
36 | RRIRIRPPRLPRPRPRPSIGPRP | -0.333
37 | RRIRIRPPRLPRPRPRPSIWPRP | -0.0823
38 | RRIRIRPPRLPRPRPRPSKRPRP | -0.622
39 | RRIRIRPPRLPRPRPRPSKWPRP | -0.539
40 | RRIRIRPPRLPRPRPRPSLKPRP | -0.154
41 | RRIRIRPPRLPRPRPRPSMLPRP | -0.422
42 | RRIRIRPPRLPRPRPRPSMTPRP | -0.43
43 | RRIRIRPPRLPRPRPRPSPGPRP | -0.552
44 | RRIRIRPPRLPRPRPRPSPIPRP | -0.574
45 | RRIRIRPPRLPRPRPRPSPPPRP | -0.214
46 | RRIRIRPPRLPRPRPRPSPRPRP | -0.0771
47 | RRIRIRPPRLPRPRPRPSQEPRP | -0.317
48 | RRIRIRPPRLPRPRPRPSQFPRP | -0.604
49 | RRIRIRPPRLPRPRPRPSQHPRP | -0.71
50 | RRIRIRPPRLPRPRPRPSRDPRP | -0.0607

Row | Sequence | shrunken log2 fold change
51 | RRIRIRPPRLPRPRPRPSSYPRP | -0.207
52 | RRIRIRPPRLPRPRPRPSTFPRP | -0.329
53 | RRIRIRPPRLPRPRPRPSTTPRP | -0.189
54 | RRIRIRPPRLPRPRPRPSVVPRP | 0.055
55 | RRIRIRPPRLPRPRPRPSWSPRP | -0.458
56 | RRIRIRPPRLPRPRPRPSYCPRP | -0.408
57 | RRIRIRPPRLPRPRPRPSYPPRP | -0.56
58 | RRIRIRPPRLPRPRPRPTAFPRP | -0.532
59 | RRIRIRPPRLPRPRPRPTAIPRP | -0.574
60 | RRIRIRPPRLPRPRPRPTCAPRP | -0.166
61 | RRIRIRPPRLPRPRPRPTCHPRP | -0.467
62 | RRIRIRPPRLPRPRPRPTCPPRP | 0.00857
63 | RRIRIRPPRLPRPRPRPTCWPRP | 0.151
64 | RRIRIRPPRLPRPRPRPTFGPRP | -0.28
65 | RRIRIRPPRLPRPRPRPTFKPRP | -0.102
66 | RRIRIRPPRLPRPRPRPTFQPRP | -0.0244
67 | RRIRIRPPRLPRPRPRPTHGPRP | 0.0479
68 | RRIRIRPPRLPRPRPRPTHQPRP | 0.0537
69 | RRIRIRPPRLPRPRPRPTKIPRP | -0.158
70 | RRIRIRPPRLPRPRPRPTLGPRP | -0.139
71 | RRIRIRPPRLPRPRPRPTMTPRP | -0.0629
72 | RRIRIRPPRLPRPRPRPTNEPRP | -0.4
73 | RRIRIRPPRLPRPRPRPTNVPRP | -0.174
74 | RRIRIRPPRLPRPRPRPTPKPRP | -0.0169
75 | RRIRIRPPRLPRPRPRPTRLPRP | 0.0583

Row | Sequence | shrunken log2 fold change
76 | RRIRIRPPRLPRPRPRPTSRPRP | -0.0459
77 | RRIRIRPPRLPRPRPRPTTSPRP | -0.0703
78 | RRIRIRPPRLPRPRPRPTVGPRP | 0.152
79 | RRIRIRPPRLPRPRPRPTVRPRP | 0.158
80 | RRIRIRPPRLPRPRPRPVADPRP | 0.0861
81 | RRIRIRPPRLPRPRPRPVAKPRP | -0.0157
82 | RRIRIRPPRLPRPRPRPVCEPRP | 0.0639
83 | RRIRIRPPRLPRPRPRPVCHPRP | -0.179
84 | RRIRIRPPRLPRPRPRPVCIPRP | -0.527
85 | RRIRIRPPRLPRPRPRPVCTPRP | -0.159
86 | RRIRIRPPRLPRPRPRPVDSPRP | 0.0804
87 | RRIRIRPPRLPRPRPRPVENPRP | -0.0976
88 | RRIRIRPPRLPRPRPRPVGNPRP | 0.00174
89 | RRIRIRPPRLPRPRPRPVGWPRP | 0.668
90 | RRIRIRPPRLPRPRPRPVHEPRP | -0.139
91 | RRIRIRPPRLPRPRPRPVISPRP | -0.43
92 | RRIRIRPPRLPRPRPRPVITPRP | -0.553
93 | RRIRIRPPRLPRPRPRPVKCPRP | 0.101
94 | RRIRIRPPRLPRPRPRPVKYPRP | -9.3e-05
95 | RRIRIRPPRLPRPRPRPVMEPRP | -0.194
96 | RRIRIRPPRLPRPRPRPVMHPRP | 0.152
97 | RRIRIRPPRLPRPRPRPVMIPRP | -0.00671
98 | RRIRIRPPRLPRPRPRPVMRPRP | 0.144
99 | RRIRIRPPRLPRPRPRPVNPPRP | 1.75
100 | RRIRIRPPRLPRPRPRPVPIPRP | -0.403

Row | Sequence | shrunken log2 fold change
101 | RRIRIRPPRLPRPRPRPVQKPRP | 0.0154
102 | RRIRIRPPRLPRPRPRPVQWPRP | 0.0754
103 | RRIRIRPPRLPRPRPRPVRHPRP | -0.0859
104 | RRIRIRPPRLPRPRPRPVSFPRP | 0.00232
105 | RRIRIRPPRLPRPRPRPVSTPRP | -0.342
106 | RRIRIRPPRLPRPRPRPVTCPRP | -0.255
107 | RRIRIRPPRLPRPRPRPVTVPRP | 0.129
108 | RRIRIRPPRLPRPRPRPVVHPRP | -0.000671
109 | RRIRIRPPRLPRPRPRPWAAPRP | 0.00251
110 | RRIRIRPPRLPRPRPRPWACPRP | -0.406
111 | RRIRIRPPRLPRPRPRPWADPRP | -0.435
112 | RRIRIRPPRLPRPRPRPWAGPRP | -0.291
113 | RRIRIRPPRLPRPRPRPWAQPRP | 0.0697
114 | RRIRIRPPRLPRPRPRPWASPRP | 0.00397
115 | RRIRIRPPRLPRPRPRPWCAPRP | -0.377
116 | RRIRIRPPRLPRPRPRPWDLPRP | -0.119
117 | RRIRIRPPRLPRPRPRPWDSPRP | -0.0632
118 | RRIRIRPPRLPRPRPRPWHFPRP | -0.0737
119 | RRIRIRPPRLPRPRPRPWHYPRP | -0.111
120 | RRIRIRPPRLPRPRPRPWKHPRP | -0.0111
121 | RRIRIRPPRLPRPRPRPWMSPRP | -0.266
122 | RRIRIRPPRLPRPRPRPWQNPRP | 0.00641
123 | RRIRIRPPRLPRPRPRPWQWPRP | -0.108
124 | RRIRIRPPRLPRPRPRPWRCPRP | -0.107
125 | RRIRIRPPRLPRPRPRPWRRPRP | 1.46

Row | Sequence | shrunken log2 fold change
126 | RRIRIRPPRLPRPRPRPWSSPRP | -0.1
127 | RRIRIRPPRLPRPRPRPWTGPRP | -0.0257
128 | RRIRIRPPRLPRPRPRPWVEPRP | -0.211
129 | RRIRIRPPRLPRPRPRPWVTPRP | -0.0476
130 | RRIRIRPPRLPRPRPRPWVVPRP | -0.236
131 | RRIRIRPPRLPRPRPRPYANPRP | -0.0728
132 | RRIRIRPPRLPRPRPRPYDSPRP | -0.423
133 | RRIRIRPPRLPRPRPRPYDYPRP | -0.0343
134 | RRIRIRPPRLPRPRPRPYEHPRP | -0.0784
135 | RRIRIRPPRLPRPRPRPYFHPRP | -0.835
136 | RRIRIRPPRLPRPRPRPYFRPRP | -0.0907
137 | RRIRIRPPRLPRPRPRPYIFPRP | -0.425
138 | RRIRIRPPRLPRPRPRPYIYPRP | -0.176
139 | RRIRIRPPRLPRPRPRPYKCPRP | -0.199
140 | RRIRIRPPRLPRPRPRPYKSPRP | -1.14
141 | RRIRIRPPRLPRPRPRPYLIPRP | -1.6
142 | RRIRIRPPRLPRPRPRPYLPPRP | -0.206
143 | RRIRIRPPRLPRPRPRPYNSPRP | -0.0199
144 | RRIRIRPPRLPRPRPRPYNYPRP | -0.65
145 | RRIRIRPPRLPRPRPRPYPNPRP | -0.072
146 | RRIRIRPPRLPRPRPRPYSLPRP | -0.607
147 | RRIRIRPPRLPRPRPRPYSRPRP | -0.0136
148 | RRIRIRPPRLPRPRPRPYTHPRP | -1.09
149 | RRIRIRPPRLPRPRPRPYTVPRP | -1.32
150 | RRIRIRPPRLPRPRPRPYWNPRP | -0.694
